Data from the Human Domainome abundance scans (Beltran et al. 2025).
± gives the uncertainty stated by the source.

Assay: abundance fitness (aPCA) (normalised: wild type 0, dead -1); higher = more abundant; growth selection in yeast, the domain comes from the species named
Conditions: Saccharomyces cerevisiae (strain ATCC 204508 / S288c)

E3 ubiquitin-protein ligase RSP5 F341N, P39940
abundance fitness: 0.189 ± 0.11

E3 ubiquitin-protein ligase RSP5 F341P, P39940
abundance fitness: -0.669 ± 0.082

E3 ubiquitin-protein ligase RSP5 F341R, P39940
abundance fitness: -0.053 ± 0.045

E3 ubiquitin-protein ligase RSP5 F341S, P39940
abundance fitness: -0.066 ± 0.06

E3 ubiquitin-protein ligase RSP5 F341T, P39940
abundance fitness: 0.003 ± 0.067

E3 ubiquitin-protein ligase RSP5 F341V, P39940
abundance fitness: 0.019 ± 0.043

E3 ubiquitin-protein ligase RSP5 F341W, P39940
abundance fitness: -0.064 ± 0.056

E3 ubiquitin-protein ligase RSP5 F341Y, P39940
abundance fitness: 0.048 ± 0.054

E3 ubiquitin-protein ligase RSP5 F349A, P39940
abundance fitness: -0.708 ± 0.047

E3 ubiquitin-protein ligase RSP5 F349G, P39940
abundance fitness: -0.703 ± 0.043

E3 ubiquitin-protein ligase RSP5 F349I, P39940
abundance fitness: -0.814 ± 0.1

E3 ubiquitin-protein ligase RSP5 F349K, P39940
abundance fitness: -0.837 ± 0.13

E3 ubiquitin-protein ligase RSP5 F349L, P39940
abundance fitness: -0.648 ± 0.055

E3 ubiquitin-protein ligase RSP5 F349M, P39940
abundance fitness: -0.662 ± 0.15

E3 ubiquitin-protein ligase RSP5 F349P, P39940
abundance fitness: -0.804 ± 0.08

E3 ubiquitin-protein ligase RSP5 F349R, P39940
abundance fitness: -0.937 ± 0.051

E3 ubiquitin-protein ligase RSP5 F349S, P39940
abundance fitness: -0.83 ± 0.057

E3 ubiquitin-protein ligase RSP5 F349V, P39940
abundance fitness: -0.739 ± 0.044

E3 ubiquitin-protein ligase RSP5 F349W, P39940
abundance fitness: -0.008 ± 0.052

E3 ubiquitin-protein ligase RSP5 F349Y, P39940
abundance fitness: 0.086 ± 0.072

E3 ubiquitin-protein ligase RSP5 G324A, P39940
abundance fitness: 0.004 ± 0.084

E3 ubiquitin-protein ligase RSP5 G324C, P39940
abundance fitness: 0.204 ± 0.12

E3 ubiquitin-protein ligase RSP5 G324D, P39940
abundance fitness: 0.06 ± 0.065

E3 ubiquitin-protein ligase RSP5 G324E, P39940
abundance fitness: 0.216 ± 0.071

E3 ubiquitin-protein ligase RSP5 G324F, P39940
abundance fitness: -0.48 ± 0.45

E3 ubiquitin-protein ligase RSP5 G324K, P39940
abundance fitness: 0.284 ± 0.14

E3 ubiquitin-protein ligase RSP5 G324L, P39940
abundance fitness: -0.328 ± 0.13

E3 ubiquitin-protein ligase RSP5 G324M, P39940
abundance fitness: 0.105 ± 0.12

E3 ubiquitin-protein ligase RSP5 G324N, P39940
abundance fitness: 0.182 ± 0.12

E3 ubiquitin-protein ligase RSP5 G324P, P39940
abundance fitness: -0.178 ± 0.1

E3 ubiquitin-protein ligase RSP5 G324R, P39940
abundance fitness: -0.099 ± 0.066

E3 ubiquitin-protein ligase RSP5 G324S, P39940
abundance fitness: 0.097 ± 0.092

E3 ubiquitin-protein ligase RSP5 G324T, P39940
abundance fitness: -0.04 ± 0.11

E3 ubiquitin-protein ligase RSP5 G324V, P39940
abundance fitness: 0.005 ± 0.11

E3 ubiquitin-protein ligase RSP5 G324W, P39940
abundance fitness: -0.344 ± 0.086

E3 ubiquitin-protein ligase RSP5 G325A, P39940
abundance fitness: -0.046 ± 0.051

E3 ubiquitin-protein ligase RSP5 G325C, P39940
abundance fitness: -0.008 ± 0.071

E3 ubiquitin-protein ligase RSP5 G325D, P39940
abundance fitness: 0.051 ± 0.051

E3 ubiquitin-protein ligase RSP5 G325E, P39940
abundance fitness: -0.031 ± 0.067

E3 ubiquitin-protein ligase RSP5 G325F, P39940
abundance fitness: -0.132 ± 0.065

E3 ubiquitin-protein ligase RSP5 G325H, P39940
abundance fitness: -0.035 ± 0.099

E3 ubiquitin-protein ligase RSP5 G325I, P39940
abundance fitness: 0.018 ± 0.092

E3 ubiquitin-protein ligase RSP5 G325L, P39940
abundance fitness: 0.029 ± 0.11

E3 ubiquitin-protein ligase RSP5 G325M, P39940
abundance fitness: 0.137 ± 0.095

E3 ubiquitin-protein ligase RSP5 G325P, P39940
abundance fitness: -0.252 ± 0.072

E3 ubiquitin-protein ligase RSP5 G325Q, P39940
abundance fitness: -0.151 ± 0.1

E3 ubiquitin-protein ligase RSP5 G325R, P39940
abundance fitness: -0.063 ± 0.047

E3 ubiquitin-protein ligase RSP5 G325S, P39940
abundance fitness: 0.069 ± 0.094

E3 ubiquitin-protein ligase RSP5 G325T, P39940
abundance fitness: 0.071 ± 0.097

E3 ubiquitin-protein ligase RSP5 G325V, P39940
abundance fitness: -0.021 ± 0.045

E3 ubiquitin-protein ligase RSP5 G325W, P39940
abundance fitness: -0.141 ± 0.099

E3 ubiquitin-protein ligase RSP5 G325Y, P39940
abundance fitness: -0.057 ± 0.083

E3 ubiquitin-protein ligase RSP5 G329A, P39940
abundance fitness: 0.037 ± 0.044

E3 ubiquitin-protein ligase RSP5 G329C, P39940
abundance fitness: 0.077 ± 0.082

E3 ubiquitin-protein ligase RSP5 G329D, P39940
abundance fitness: 0.149 ± 0.066

E3 ubiquitin-protein ligase RSP5 G329E, P39940
abundance fitness: 0.096 ± 0.055

E3 ubiquitin-protein ligase RSP5 G329F, P39940
abundance fitness: -0.026 ± 0.091

E3 ubiquitin-protein ligase RSP5 G329H, P39940
abundance fitness: -0.046 ± 0.083

E3 ubiquitin-protein ligase RSP5 G329L, P39940
abundance fitness: -0.129 ± 0.047

E3 ubiquitin-protein ligase RSP5 G329M, P39940
abundance fitness: 0.061 ± 0.098

E3 ubiquitin-protein ligase RSP5 G329N, P39940
abundance fitness: 0.1 ± 0.069

E3 ubiquitin-protein ligase RSP5 G329P, P39940
abundance fitness: -0.113 ± 0.052

E3 ubiquitin-protein ligase RSP5 G329Q, P39940
abundance fitness: 0.18 ± 0.096

E3 ubiquitin-protein ligase RSP5 G329R, P39940
abundance fitness: -0.021 ± 0.043

E3 ubiquitin-protein ligase RSP5 G329S, P39940
abundance fitness: 0.103 ± 0.054

E3 ubiquitin-protein ligase RSP5 G329T, P39940
abundance fitness: 0.063 ± 0.071

E3 ubiquitin-protein ligase RSP5 G329V, P39940
abundance fitness: -0.006 ± 0.042

E3 ubiquitin-protein ligase RSP5 G329W, P39940
abundance fitness: -0.139 ± 0.058

E3 ubiquitin-protein ligase RSP5 G329Y, P39940
abundance fitness: -0.337 ± 0.39

E3 ubiquitin-protein ligase RSP5 G331A, P39940
abundance fitness: -0.034 ± 0.042

E3 ubiquitin-protein ligase RSP5 G331C, P39940
abundance fitness: -0.095 ± 0.09

E3 ubiquitin-protein ligase RSP5 G331D, P39940
abundance fitness: 0.059 ± 0.087

E3 ubiquitin-protein ligase RSP5 G331E, P39940
abundance fitness: -0.127 ± 0.049

E3 ubiquitin-protein ligase RSP5 G331F, P39940
abundance fitness: -0.126 ± 0.084

E3 ubiquitin-protein ligase RSP5 G331H, P39940
abundance fitness: -0.009 ± 0.15

E3 ubiquitin-protein ligase RSP5 G331I, P39940
abundance fitness: -0.071 ± 0.068

E3 ubiquitin-protein ligase RSP5 G331K, P39940
abundance fitness: -0.121 ± 0.046

E3 ubiquitin-protein ligase RSP5 G331L, P39940
abundance fitness: -0.095 ± 0.046

E3 ubiquitin-protein ligase RSP5 G331M, P39940
abundance fitness: -0.02 ± 0.055

E3 ubiquitin-protein ligase RSP5 G331N, P39940
abundance fitness: -0.01 ± 0.1

E3 ubiquitin-protein ligase RSP5 G331P, P39940
abundance fitness: -0.249 ± 0.07

E3 ubiquitin-protein ligase RSP5 G331R, P39940
abundance fitness: -0.17 ± 0.041

E3 ubiquitin-protein ligase RSP5 G331S, P39940
abundance fitness: -0.186 ± 0.046

E3 ubiquitin-protein ligase RSP5 G331T, P39940
abundance fitness: -0.09 ± 0.046

E3 ubiquitin-protein ligase RSP5 G331V, P39940
abundance fitness: -0.083 ± 0.047

E3 ubiquitin-protein ligase RSP5 G331W, P39940
abundance fitness: -0.329 ± 0.049

E3 ubiquitin-protein ligase RSP5 G331Y, P39940
abundance fitness: -0.202 ± 0.17

E3 ubiquitin-protein ligase RSP5 G336A, P39940
abundance fitness: -0.447 ± 0.05

E3 ubiquitin-protein ligase RSP5 G336C, P39940
abundance fitness: -0.427 ± 0.063

E3 ubiquitin-protein ligase RSP5 G336D, P39940
abundance fitness: -0.368 ± 0.07

E3 ubiquitin-protein ligase RSP5 G336E, P39940
abundance fitness: -0.562 ± 0.059

E3 ubiquitin-protein ligase RSP5 G336F, P39940
abundance fitness: -0.544 ± 0.067

E3 ubiquitin-protein ligase RSP5 G336H, P39940
abundance fitness: -0.157 ± 0.2

E3 ubiquitin-protein ligase RSP5 G336I, P39940
abundance fitness: -1.3 ± 0.13

E3 ubiquitin-protein ligase RSP5 G336K, P39940
abundance fitness: -0.302 ± 0.062

E3 ubiquitin-protein ligase RSP5 G336L, P39940
abundance fitness: -0.575 ± 0.062

E3 ubiquitin-protein ligase RSP5 G336M, P39940
abundance fitness: -0.531 ± 0.1

E3 ubiquitin-protein ligase RSP5 G336P, P39940
abundance fitness: -0.755 ± 0.057

E3 ubiquitin-protein ligase RSP5 G336Q, P39940
abundance fitness: -0.271 ± 0.079

E3 ubiquitin-protein ligase RSP5 G336S, P39940
abundance fitness: -0.471 ± 0.061

E3 ubiquitin-protein ligase RSP5 G336T, P39940
abundance fitness: -0.461 ± 0.072

E3 ubiquitin-protein ligase RSP5 G336V, P39940
abundance fitness: -1.11 ± 0.061

E3 ubiquitin-protein ligase RSP5 G336W, P39940
abundance fitness: -0.558 ± 0.054
